One assay concerns the target T1, human serum albumin (human, UniProt P02768 25-609).
T1 construct: also called HSA; HAS
The assay can be described thus: ELISA, 0.5 µg HSA per well, expression lysate, anti-HA-HRP, signal equal to or better than the anti-HSA trimer. In general terms: ELISA stands for enzyme-linked immunosorbent assay.

Another assay concerns the target human IgE (human, UniProt P01854 1-428). Put plainly: Biacore, human IgE coupled to a CM5 chip by NHS/EDC, sample protein in flow. The source says: Human IgE was immobilized to a CM5 chip (BiaCore) using standard NHS/EDC methods. Sample proteins were dialyzed into HBS buffer overnight, and the dialysis buffer was used as a running buffer for the experiment. Sample proteins were run successively over IgE or ethanolamine coated flow cells, and the data analyzed using the BiaEvaluation software package.
Background: In SPR one partner is held on a chip, and binding of the other changes the refractive index at the surface.

The next assay deals with CD28 on monkey PBMC (monkey). The assay can be described thus: cell-based or functional assay.

Sequence of human IgE (P01854 other isoform, or with tags, fused parts or gaps): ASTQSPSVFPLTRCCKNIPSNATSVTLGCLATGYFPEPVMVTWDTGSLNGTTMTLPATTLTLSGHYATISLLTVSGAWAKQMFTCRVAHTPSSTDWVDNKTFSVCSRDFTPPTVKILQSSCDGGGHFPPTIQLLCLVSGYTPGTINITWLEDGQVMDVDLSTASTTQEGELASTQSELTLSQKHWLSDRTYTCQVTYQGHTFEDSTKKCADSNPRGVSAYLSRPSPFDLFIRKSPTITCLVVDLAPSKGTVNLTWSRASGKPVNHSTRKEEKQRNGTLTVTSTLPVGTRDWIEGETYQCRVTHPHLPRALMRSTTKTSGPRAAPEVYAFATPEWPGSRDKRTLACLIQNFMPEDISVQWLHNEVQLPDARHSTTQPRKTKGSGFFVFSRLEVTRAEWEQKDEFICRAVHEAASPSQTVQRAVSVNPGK
Method for human serum albumin: ELISA plate wells were coated with 0.2 μg of CD40L or 0.5 μg of HAS, and 5 μl of the monomer expression clone lysate was applied to each well. The bound monomers (which were produced as a hemagglutinin (HA) fusion) were then detected by anti-HA-HRP conjugated antibody, developed by horse-radish peroxidase enzyme activity, and read at an OD of 450 nm.

B1: A1_34 (designed binder)
chain: CNPTGKFKCRSGRCVPRESCRCDGVDDCEDNSDEKDCQPHTSLQ
notes: HA fusion, tested as expression lysate
Regarding B1, the binding result with human serum albumin was “binds”.

B2: recombinant human FcERI protein (receptor, UniProt P12319 26-205, looked up)
chain: VPQKPKVSLNPPWNRIFKGENVTLTCNGNNFFEVSSTKWFHNGSLSEETNSSLNIVNAKFEDSGEYKCQHQQVNESEPVYLEVFSDWLLLQASAEVVMEGQPLFLRCHGWRNWDVYKVIYYKDGEALKYWYENHNISITNATVEDSGTYYCTGKVWQLDYESEPLNITVIKAPREKYWLQ
notes: also called recombinant FcERI; recombinant soluble IgE receptor
By Kd is commonly meant a measure of binding affinity in units of concentration. Take B2: in the assay with human IgE, the Kd was 450 nM.

B3: CD28-A10 (designed binder)
chain: CGPGRFQCESGQCVPATWVCDGDDDCADGSDEKSCATTAPTCESNQFQCGSGQCLPGTWRCDGVNDCADSSDETGCGRPGPGATSAPAACGPGRFQCNNGNCVPQTLGCDGDNDCGDSSDEANCSAPASEPPGSL
For B3, the “IC50, PBMC assay on monkey cells” value with CD28 on monkey PBMC came to 7 nM.

Values taken from US20050053973A1 (published 2005).
